Measurements as given in the domain aggregation screens of Martell et al. (2025).

Assay: soluble fraction after stress (log2 fold change); higher = more stays soluble; pooled small domains, quantitative proteomics
Settings: stress: 75 degC
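Further: 20 min heating vs room temperature control held 20 min.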

Sequence | soluble fraction (log2)
HMKRLQEQAYDYLKELILSGKMIENEIYSETKLASEIGISRTPIRDALQRLSQDGFIDIIPSKGFRIH | -0.734
HMKRMSKKQLSAVIEKYFSSQPGVTLTLKDIFRNLHLDTHPLKMIALDILEEMSWDDVIMKVSDTSYALNT | 0.194
HMKRNLESVLDHIEGIGPKRRKALYKHFGNLDAMRVAELEELESVEGMNKKAALAVYEFFRRNS | 0.386
HMKRNTKAEVLEILLNSGETPVSGERLAENLGISRNAVWKAVTALKEDGYNISAKRNSGYILNKS | -0.143
HMKRREENLRRLALSTAERVKRKGKKEILNPMSPQERRIIHLTLQNNKEVVTHSEGEDPYRRVIISPRN | -0.397
HMKRRSLQVGDIVQVRSLNVKGEVVSIGKNEVVVAVGRLQMRAGFDDLDFKERPKEEREVESV | -0.467
HMKRSFGSVRQLRSGNYQARYTGPDTVRHTSPVTYTSKMDAEAWLVDERRKISSGTWTPPAR | -0.193
HMKRSVIVTAERAEVRQKADEGSALVFEAEKNVSLEYLEAAPGGWVKVRHLDGQSGFVRGNQI | -0.309
HMKRTKLEEATEWLRDRLSDGVKYNGEELLREGESADMARRTLRRAAQELGVIIERERGARGRWFWSLP | -0.897
HMKRTLLLEGRTIPYELTQKPVKNINIRVHADGSVRVSAGPWVSPEAVDAVLRQRSAFLLRALDQFAAQAP | -1.91
HMKRVPFAFAGDMLRWAAWLYHVEKRTQNEIAEELEVSRQTVANYLSEAMSQGLVQVQLRSDIIE | -1.98
HMKSAIGEEKAENFAFADLGMDPLSAEGVRTEFGFEQGQFVYKVYFTADGTEYEYWIKASDGSVVKKGMDL | -1.53
HMKSAIKQNILLYLSNKGVTSYEFYKISGVTRGILQQSNGISEDNIAKFLAYAPDVNIEWLLTGKGDMLKH | -1.41
HMKSATGKIPDFISDLPVDEFVRELIVTNAFQPLNKFKEVQNHIGSALKIYVDELTEKRANGTVHILYSHK | 0.46
HMKSAYADVAIAKVQDYVNVRAENNEDSEVLGKLYNNSAATVLETTDDGWYKISSGSVTGYVKSEYVVVG | -0.111
HMKSEMYIDLSNALLKMSERDKELLTYRYTMEMSSKEISQITGIKESNVNSYIRRAREKLLKIFNAMNK | -3.73
HMKSFDERQAALNELAKVIEGTGRKAEQDAEFRREQNQLMIDKIDEQLKGDLTDSQREELKKERAALARK | 0.174
HMKSGLLNLSTRKQEKIKQALLSEFSNVSLLEAKVANIVTLAEISRGSFYTYFEDIYDAYQWLASI | -0.513
HMKSIFIRADELAAELDVSKALAYKMINQWNEELKAKGYTTVGGRVSRQYYYEKIYGAENVFDF | -1.76
HMKSILDDVVGLGPVRKKALLSAAGGFRKLRDMDVDEVIGLGAVPEEVAREVVTVLAQYNGERDRVEGL | -0.146
HMKSILSEIPGIGPKKRKSLMMQFGSVKNISEASLKDLSSTKGINSNLSKEIFNFFSVEKNN | -0.0299
HMKSKNILLGEYKGKEVHVGEGKYGPFILYDKKFKSIGAYLTENSLMLKDLTIEDYSKIMKFTENSNSKS | -0.91
HMKSKNRLTKSYLDSIPGVGRKRKSILLRYFGSIDQIKRASSEDIANVPGIGKITSDLVYNYFNQ | -0.811
HMKSLAQELVDALGDRIRDGRLKVGDKLPSEAAIEAQYGVSRTVVREAISRLQAAGLVVTRHGIGTFIVGI | -2.45
HMKSLLDQINGIGAIRKRALLNHFGSARAVESASLDEIKSVEGVEAKVAKKIYNFFHEYKNMLR | -1.51
HMKSLLSRREQEVLELVSRGFSYSEIAELKNLSVHTIQTHIKSLYGKLEVHSKMEAVLEATRMGLLPQ | -2.34

Sequence | soluble fraction (log2)
HMKSSLAKNLETLMQERQISQTRLSKISGVSQSYIFKILNDQIKKPSLDTLEKLATALDSTVAQLNH | -0.433
HMKSSTEIIYSDFLREVSNGQISEVTIQGDFVRGLFLSGSSFQTYAPKDSNLINILRDKKVRIKVHPP | -1.07
HMKSTELSIIEALRVLGLKHGASQDSIKKSYRRLVKQHHPDLGGSADSFRKVNEAYQLLIMN | -0.749
HMKSVILQLHPETLRWIREEAQADMADASVIQLLNDWELGTKKPTLSQVQKLSHETHIPFGYFFLKEKPA | -0.64
HMKSVQIPQSITVKEFSQAIEVSVADVIKKLMSMGVMVSQNKEINVDTAILVGEEFGVTVNVA | 0.609
HMKSVTVIFKESGNVVSSKKLSVVATAQYVDKSRITAPAGYRIATTDSKLKISENNTVTVEVK | -0.496
HMKSYTYNPNYLSDYNAYRLGIPLEALERLQLHRSTGRYVNSLSDFQSVTGISDSLKHSLSSSLRFPN | -1.36
HMKTDLQIQQDVMAELKWEPKVNAAHIGVEVKHGVVTLSGHVDSFAEKWNAEQAAKRVAGVKFIAIELDV | -2.1
HMKTEIKSPLPGIVLKIFVRTGEYVDKNQRLFSLEAMKMENEIKAERAGVIAGIRISEGQSVLQDEVIMEM | -3.7
HMKTFQSYQTTSMSNVNLRKRANGTSTILKRIKVGDTVTVVGKSGNYYQIQFDGKEGYALIKYIDGTDSGA | -1.95
HMKTFSTRLIALREAIGVNQSELARRVGVTPQAVQKWESGANGPRGKRLEKLASELRSTVGYLVSGEGDG | -0.434
HMKTGAKLKNLRKMKKLSQEEVAKVLNLSYSTLSRWENDTRIPTYEDLFKLGQFYGVSVDYLSDPN | -0.98
HMKTGNIITVSLVWKGKYYMIRMFFPSASRPTRSDVQNEIEKVYPGSKLSTFSVSDYEPGQPLLQV | -1.6
HMKTGNPYAQRNTADMYNYGRGIEKDSYLAFVWYFAAYKQGNDNAKPQIDSITASGHLSPNQQLHAKIE | -0.243
HMKTIQVGSTVRVNQGAKTYSGGGLASFVYKRNHKVSQLQGDRAVITYEGTVVAAVHVSDLSLIH | -0.192
HMKTLELIAAIRKRIAGGYAGADGRLPNIGEIAKDFSVSPMTAQKAVRALVEAGVLTSTRRKGVFLKQPAS | -2.09
HMKTLGMDKGVNIALNDAGLRAEDVSNLSAHYDTEDGVPVYEIKFTAGGFSYEYQIKASDGTIIEADRDAA | -0.00738
HMKTMAVYPVGTRVLTSDGEIGVVEKQNSEAPERPVIKILKGADGHDYEKPDFKDLMKILTLFIVDTI | 0.182
HMKTMSLSSIEKAIYKTKYENEPTSQRLSRIESSVFGTNFSQDSESERIARISSAINAQKSAK | 0.0313
HMKTMTTIRKGSRGDTVATLQRKLNLIADGIFGPITDEAVRDFQKSHGLAVDGIVGPKTWAALGVGS | 0.00482
HMKTNQINVSGLSKEKNFEVLESLDVYKFYNLFFLNKIKIDQLINSYNHIDNYSVFKKYPSSLIVKLSE | 0.0213
HMKTPETSEYVVQAGDSLRRILTERYGAKEQDLPYLYRQFRLLNPKVSSLDNIHAGTKVRIPLVASVL | -0.135
HMKTPRKVFTVLIRNTEYDVYDIDGKEHQGYNDTPKTWWLYHSERLPEGMIPPIDSDSWKPYSVGT | -1.27
HMKTTKESLLEYIQREVFTDSIHKEGLSTNEIADAFQIQRSNVSSLLNTLVKEGKLEKTTGRPVLYRIPEK | -0.126
HMKVEFDAMDKRILELMAKEYDTVLMARHLPLTPIVIDVRKKRIREVLNLPDATDAEIVIEAKEKDII | -1.08
HMKVEIVRVVKDIHIGDEITKDMVRTVEVGGYNLPDGVVKDTATVIGRFASADMVPGDYIISSKIADAP | -0.378

Sequence | soluble fraction (log2)
HMKVELSENEKIIYDLLSNQEVLLSEIKDKAELSNKAWDKSTKSLRKLGLVIVEKKDDNIYISKS | -0.101
HMKVGEIIKAKREELKIPLVNFAKELDISQGYLSQIENGIKTNPNLDIILKIIHRLDIDLAMLL | -1.93
HMKVIAEESYRILVDAIEKLPPQMKSIMQLALEGKSNPEIAETLNISGETVHSQKKIAYRKLRVYLKD | -2.36
HMKVIETKYNTYVVKSGDTLYSVAKKYGISVTELKEINDLSNNTLSIGQKLLVPATTIIIDE | -0.637
HMKVNMIIVMKPGARETDIQEVSNVLKSAGLGVHISKGTERTIIGVIGDKRLLNGIPLDLMHGVDKLVPIM | -1.24
HMKVNQFEVEGNQRYSTEEIAKASGVSKGDNLFLVNKTETARKLLDELAYVRSVNIKRKLPDTLVITVAE | -0.032
HMKVPDVQYMNKDSAIEALTANELKYTIVEAENENVAAGVVISQSVERDSQVAPGTSVELVVSTG | 0.212
HMKVQEMTANSFLTQWEAGNVKTLDILPEGIIKGELNDGTKFQLYYSSAAGLIDDVKKNPEKFANTTVSEK | 0.0538
HMKVQEVDYGTFLTMVDEGKVNQVDIENSKQITFNTKGDKNKVYITGQVNDPELVNRLYKAGVEFSQEIP | 0.273
HMKVSNWYFNGAPSATTPPTSQWTTEKDKKAHIGDTFTSLDKSPSPNAGKSWRYTPSYTWEEIV | 0.655
HMKVSRTAVKLHHANAVEVAKKLQPLFVVGDVQIEPVKDAGIILLKGPASTLADLRESIVQMDHTA | -0.188
HMKVTRWEDTGMKPAEAQEWQHYDFKPQEAMNWRDAGFVPLVARTWSDKGFDASEAQAWRDSVRNS | -0.618
HMKVVEKHIVPQIQNPIRLQEYASSIFKTITTRSGIKKAIKKQLILLNRKPANTGDWIKEGQLLELLAEE | -2.53
HMKVYIKDISDLSDKLKSLLIENDIDDSNKLFEVEDQVLLEIKGLGSKTIDKIKDIVTEYLKKNN | -0.266
HMKVYPIMEAIANNNIELVKLLLEYHADLNIKDSNGNTPLALAKETGAKEVEDLLLQWMKQHT | -1.06
HMKWGDTPTVEVPNLIGMKKKDLQTQLVDLKLDISGDGEKVIKQSPEAGAKVKEGSKIRIYFG | -0.332
HMKWYDSDKGFGFLSQEEGEDVYVRSSALPAGVEGLKAGQRVEFGIASGRRGPQALSL | -0.31
HMKYKKYKLLKDLPTFKAGQLAYISKTGNLIAGTPENQKTTETGLIIMIYHETTLKKFPNILTEWFEEIE | -3.3
HMKYNGDRPVFNDDVAWAKWMLENPAKITSHDKENLSSMLKKPEVVMLFEAEDLSVPDLRTLAKE | ≥ 1.04
HMKYNYEAQQSDELSLVKGSRIHVLEKSSDGWWKGEIDNVVGWFPS | -0.239
HMKYRLLGENLQTIRKARGMKQQELADQIGINMQSLSKIERGLNYPTFETLEKIMNALGITPNELLSG | -0.82
HMKYRPGDVVTLRVARMGEMGAFLDAGTGNTNDDILLHKMQQTEEIKAGQDVKVYLYLDPNRRLTASMKL | -0.835
HMKYSNDEVERDLYVRGVIYQIGDLVENKLDGTSGEVVRRGPNYVQYTDGENFYKAFLSALQEQK | -0.369
HMKYSYAELTKLQEQIAQDRNAPLTVPNALGIGLDERNNVIEITVNIADEAAAKAYYLQKYGDRISLKTTD | -0.317
HMKYTEEIFNILSRGGFISANSVSSTVKRYYDALEEDFTEYYDYYKGIGFYLEAGNGYYLFTR | -3.41
